Reference: the supplement of paper PMC10724198
± gives the standard deviation of the averaged measurements.

test system: Saccharomyces cerevisiae; assay: protein stability index of tFT-peptide fusion (C-terminal peptide) (PSI (0-1 scale)); higher = more stable (slower turnover); details: genetic background: wild type; temperature: 30 C
Procedure: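 Multiplexed protein stability (MPS) profiling in S. cerevisiae. Random 12-aa peptides (tFT-X12 library) are fused to the C-terminus of a sfGFP-mCherry tandem fluorescent timer, after mCherry and a GGGS linker. Cells are FACS-sorted into 8 mCherry/sfGFP bins and deep-sequenced. The protein stability index (PSI) is the read-weighted bin average, scaled from 0 (unstable) to 1 (stable). Only peptides with >10 reads are reported; cells were grown at 30 °C in SC-His with glucose.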
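Further: PSI is a weighted mean of sequencing reads over stability bins, variants kept only with over 10 reads, mCherry proximal and sfGFP distal, peptide attached via GGGS linker.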

KRHCDRVLKMWH and KRKEEKKPLINE are within error of each other in protein stability index: 0.641 ± 0.11 for the first, 0.734 ± 0.072 for the second.

KRKEKAKRTKHV and KRKKKKKRRTKK are within error of each other in protein stability index: 0.641 ± 0.035 for the first, 0.6442 ± 0.0045 for the second.

First: KRKKKRRKETLY
Second: KRKKQGNKKQEE
The protein stability index of the first is lower: 0.641 ± 0.037 for the first, 0.6893 ± 0.0017 for the second.

KRKRQKNIRNER and KRKTKIEQDQRQ are within error of each other in protein stability index: 0.704 ± 0.12 for the first, 0.6704 ± 0.0056 for the second.

KRREEKKRKRVE and KRRQGRGAKGGE are within error of each other in protein stability index: 0.648 ± 0.094 for the first, 0.629 ± 0.045 for the second.

Compared with KRRSHRQHSRRR, KRSARRAGRATP is higher in protein stability index: 0.559 ± 0.032 for the first, 0.761 ± 0.14 for the second.

First: KRVTYKRIRSKI
Second: KSAGLKPNWSTT
The protein stability index of the first is higher: 0.799 ± 0.029 for the first, 0.696 ± 0.065 for the second.

KSDSDNCQALTY and KSLRLFSVLSFV are within error of each other in protein stability index: 0.679 ± 0.067 for the first, 0.627 ± 0.016 for the second.

KSVAKLGHGGSP and KSVSVDGYNKED are within error of each other in protein stability index: 0.677 ± 0.064 for the first, 0.646 ± 0.01 for the second.

Compared with KSYRVGKMAAQR, KTAKSEEPILYR is higher in protein stability index: 0.683 ± 0.012 for the first, 0.753 ± 0.0083 for the second.

Compared with KTEKTKIKKKRM, KTFPPVTLDFSS is lower in protein stability index: 0.684 ± 0.0075 for the first, 0.609 ± 0.013 for the second.

KTINKEQKKKEM and KTKERARTISRV are within error of each other in protein stability index: 0.7 ± 0.036 for the first, 0.721 ± 0.024 for the second.

Compared with KTKKPIILDTSN, KTKKYIQKNKKR is higher in protein stability index: 0.6406 ± 0.0047 for the first, 0.773 ± 0.012 for the second.

KTNNQVDTSVKD and KTNNYPDNNPPG are within error of each other in protein stability index: 0.645 ± 0.054 for the first, 0.611 ± 0.016 for the second.

Going from KTRHMQGNRVDS to KTRPVCKVSCKL, the protein stability index rises from 0.603 ± 0.045 to 0.77 ± 0.092.

Going from KTRRHDQKMEKI to KTSQYKPREKID, the protein stability index rises from 0.659 ± 0.026 to 0.736 ± 0.04.

KTTETVLRKRTK and KTTKEKESQEKN are within error of each other in protein stability index: 0.737 ± 0.049 for the first, 0.723 ± 0.029 for the second.

Compared with KTYKNKTQQNAS, KVGWGMRGVRGG is lower in protein stability index: 0.746 ± 0.045 for the first, 0.66 ± 0.015 for the second.

Compared with KVHVILTGKYEI, KVREGEARKEST is lower in protein stability index: 0.7012 ± 0.0025 for the first, 0.6826 ± 0.0017 for the second.

Compared with KVSKHIKTNDSI, KWCQSNNIVKRT is higher in protein stability index: 0.65 ± 0.02 for the first, 0.7 ± 0.011 for the second.

Going from KYFCSLAFFLFA to KYINSASLIVYY, the protein stability index rises from 0.502 ± 0.0073 to 0.693 ± 0.06.

Going from LAAGPSERTART to LACMWICPHIQA, the protein stability index falls from 0.685 ± 0.052 to 0.606 ± 0.023.

LADLLRCSYSLS and LAGRARLVMCPR are within error of each other in protein stability index: 0.677 ± 0.046 for the first, 0.639 ± 0.0068 for the second.

LAGVSTPLPPPP and LAHAGSRPPTPG are within error of each other in protein stability index: 0.696 ± 0.029 for the first, 0.6754 ± 0.0016 for the second.

LALHPPPRVPPT and LANVGLDVSRIS are within error of each other in protein stability index: 0.701 ± 0.036 for the first, 0.696 ± 0.012 for the second.

First: LAPPLILLPFVD
Second: LAPPPAAPRFCL
The protein stability index of the first is higher: 0.699 ± 0.033 for the first, 0.652 ± 0.008 for the second.

LAPPYPSSASSH and LAQLPPSLRFPP are within error of each other in protein stability index: 0.688 ± 0.022 for the first, 0.72 ± 0.1 for the second.

LARLPPPSLSRV and LASTMTIMLPGC are within error of each other in protein stability index: 0.713 ± 0.055 for the first, 0.703 ± 0.15 for the second.

LASVLRESRIST and LATDVGHRLLGI are within error of each other in protein stability index: 0.671 ± 0.0078 for the first, 0.707 ± 0.042 for the second.

Going from LAVWSVVGGGVV to LAWLGLHERTLF, the protein stability index rises from 0.637 ± 0.008 to 0.685 ± 0.0077.

LAYIFTPVRTTG and LCCLSSLAMLFF are within error of each other in protein stability index: 0.799 ± 0.26 for the first, 0.7 ± 0.12 for the second.

LCLIGQPQTRVS and LCLTLPSDSSAP are within error of each other in protein stability index: 0.695 ± 0.17 for the first, 0.841 ± 0.073 for the second.

LCRRGGRSACGS and LCSGRGGRVCGG are within error of each other in protein stability index: 0.7019 ± 0.0067 for the first, 0.669 ± 0.038 for the second.

First: LCVRFFGVKWAF
Second: LCWQALSLGVMC
The protein stability index of the first is higher: 0.594 ± 0.0095 for the first, 0.526 ± 0.023 for the second.

LDAFYVNVGLFG and LDGLLVCSNWPA are within error of each other in protein stability index: 0.732 ± 0.045 for the first, 0.805 ± 0.07 for the second.

LDHFGASYCPRG and LDPGPLVRTPRL are within error of each other in protein stability index: 0.706 ± 0.027 for the first, 0.692 ± 0.076 for the second.

LDPHPFRGHACC and LDPPCPTARLPH are within error of each other in protein stability index: 0.779 ± 0.3 for the first, 0.61 ± 0.052 for the second.

LDSMSRPGATVS and LDVAFLMSRFSS are within error of each other in protein stability index: 0.668 ± 0.051 for the first, 0.731 ± 0.024 for the second.

LDVGYVLGLERS and LEGGWRVGGGRL are within error of each other in protein stability index: 0.681 ± 0.033 for the first, 0.683 ± 0.015 for the second.

Going from LEGYFMLPRSAW to LENIHVLETIFT, the protein stability index falls from 0.736 ± 0.065 to 0.6022 ± 0.0054.

LERCKSLDSIVL gave a protein stability index of 0.701 ± 0.071.
